Data set [1] addresses T1, GRK2 (S670A), flow cytometry and crystallography (bovine, UniProt P21146 1-689, S670A). In words: competition.
Data set [2] has as its target T1, GRK2 (S670A), flow cytometry and …. Nature of the data set: competition. This is another data set of the same source.
Data set [3] shares this target. Nature of the data set: flow cytometry bead binding. (In general: In flow cytometry, cells or beads pass a laser one at a time.)
For data set [4] the target is unchanged. Nature of the data set: competition. The source holds these as a separate data set.
Data set [5] deals with GRK2-H280A, flow cytometry (UniProt P21146 1-689, H280A). Nature of the data set: flow cytometry bead binding.
Chain of GRK2-H280A, flow cytometry (P21146 whole entry H280A): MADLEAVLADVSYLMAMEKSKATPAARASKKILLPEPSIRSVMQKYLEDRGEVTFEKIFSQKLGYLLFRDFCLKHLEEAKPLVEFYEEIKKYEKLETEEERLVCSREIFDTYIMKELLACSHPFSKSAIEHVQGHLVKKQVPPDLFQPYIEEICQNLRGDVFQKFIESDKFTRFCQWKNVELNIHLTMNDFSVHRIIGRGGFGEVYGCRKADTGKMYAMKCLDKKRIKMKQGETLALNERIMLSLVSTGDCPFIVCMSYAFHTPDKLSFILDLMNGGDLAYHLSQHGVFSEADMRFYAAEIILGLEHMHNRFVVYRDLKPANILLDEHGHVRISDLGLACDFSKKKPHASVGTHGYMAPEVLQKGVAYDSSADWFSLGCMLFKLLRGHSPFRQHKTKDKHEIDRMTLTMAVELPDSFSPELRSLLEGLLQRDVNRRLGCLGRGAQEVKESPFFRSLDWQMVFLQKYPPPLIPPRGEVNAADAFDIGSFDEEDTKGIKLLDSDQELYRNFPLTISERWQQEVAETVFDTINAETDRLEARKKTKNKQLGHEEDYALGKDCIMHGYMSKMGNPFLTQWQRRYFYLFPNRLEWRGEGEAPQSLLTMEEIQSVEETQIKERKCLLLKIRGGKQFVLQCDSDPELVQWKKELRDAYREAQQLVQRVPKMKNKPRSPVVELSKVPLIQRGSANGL
Data set [6] concerns the target GRK2-D335A, flow cytometry (UniProt P21146 1-689, D335A). Nature of the data set: flow cytometry bead binding.
For data set [7], the target named is T1, GRK2 (S670A), flow cytometry and …. In words: flow cytometry bead binding. This is another data set of the same source.
Data set [8] has the same target. In words: flow cytometry bead binding. The source holds these as a separate data set.
Data set [9] concerns the target GRK6 palmitoylation-deficient (human, UniProt P43250 1-576, C561S;C562S;C565S). Nature of the data set: competition.
The target of data set [10] is T2, GRK1 truncated at residue 535 (bovine, UniProt P28327 1-535).
T2 sequence: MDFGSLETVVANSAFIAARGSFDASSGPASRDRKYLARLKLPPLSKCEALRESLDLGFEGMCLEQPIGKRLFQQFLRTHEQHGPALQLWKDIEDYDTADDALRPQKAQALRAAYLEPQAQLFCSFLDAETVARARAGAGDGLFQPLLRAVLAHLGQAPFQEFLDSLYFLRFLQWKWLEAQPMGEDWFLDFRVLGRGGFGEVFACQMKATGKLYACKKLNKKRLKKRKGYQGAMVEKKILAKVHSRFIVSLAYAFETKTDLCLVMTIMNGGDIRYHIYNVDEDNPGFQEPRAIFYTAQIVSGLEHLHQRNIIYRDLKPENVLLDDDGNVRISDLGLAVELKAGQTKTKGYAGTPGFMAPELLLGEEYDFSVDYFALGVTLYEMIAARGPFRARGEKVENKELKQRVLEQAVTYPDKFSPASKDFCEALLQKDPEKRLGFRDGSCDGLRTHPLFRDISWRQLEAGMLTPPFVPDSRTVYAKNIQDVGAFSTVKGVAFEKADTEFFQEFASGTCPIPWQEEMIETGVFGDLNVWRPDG
In words: competition.

The target in data set [11] is GRK2-FG-6A, flow cytometry (UniProt P21146 1-689, R392A;H394A;K395A;K397A;K399A;H400A). Nature of the data set: competition.
Chain of GRK2-FG-6A, flow cytometry (P21146 whole entry R392A/H394A/K395A/K397A/K399A/H400A): as the sequence (P21146 whole entry H280A) above, with A280H, R392A, H394A, K395A, K397A, K399A, H400A counted along it
Data set [12] addresses T1, GRK2 (S670A), flow cytometry and …. In words: competition. This is another data set of the same source.

Read-outs that look alike come from different tables or passages of the source.

T1 sequence (P21146 whole entry S670A): as the sequence (P21146 whole entry H280A) above, with A280H, S670A counted along it
Chain of GRK6 palmitoylation-deficient (P43250 whole entry C561S/C562S/C565S, the tested form may be a part): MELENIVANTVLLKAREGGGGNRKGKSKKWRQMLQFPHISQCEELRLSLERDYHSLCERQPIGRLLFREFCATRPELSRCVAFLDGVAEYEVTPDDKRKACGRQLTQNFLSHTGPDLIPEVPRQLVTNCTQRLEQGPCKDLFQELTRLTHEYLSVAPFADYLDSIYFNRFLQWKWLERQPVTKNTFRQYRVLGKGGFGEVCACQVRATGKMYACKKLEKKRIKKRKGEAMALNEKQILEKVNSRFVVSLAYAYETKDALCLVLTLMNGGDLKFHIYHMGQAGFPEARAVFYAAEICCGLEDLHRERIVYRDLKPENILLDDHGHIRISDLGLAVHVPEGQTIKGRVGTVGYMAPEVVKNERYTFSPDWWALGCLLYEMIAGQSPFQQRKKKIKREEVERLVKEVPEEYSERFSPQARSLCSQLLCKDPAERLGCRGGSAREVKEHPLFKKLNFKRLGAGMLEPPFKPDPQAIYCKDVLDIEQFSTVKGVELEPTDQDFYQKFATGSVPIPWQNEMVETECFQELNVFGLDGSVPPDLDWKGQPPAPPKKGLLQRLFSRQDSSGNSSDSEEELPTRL
Chain of GRK2-D335A, flow cytometry (P21146 whole entry D335A): as the sequence (P21146 whole entry H280A) above, with A280H, D335A counted along it

Broadly, the IC50 is the point on the concentration scale where inhibition reaches its midpoint. Read a high IC50 as weaker potency in that assay. With AGACCAUACGGGAGAGAAACUU (structured_RNA) [C13.22], the 50% inhibitory concentration (IC50) in [1] turned out to be 46 ± 9 nM.
Still for that read-out and setting: the result for GGCGACCAUACGGGAGAGAAACUGCC (structured_RNA) [C13.26] reads 0.9 ± 0.03 nM; that for GGGCAGACCAUACGGGAGAGAAACUUGCC (structured_RNA) [C13.29], 0.91 ± 0.07 nM; that for GGGUAGCACAGACCAUACGGGAGAGAAACUUGUGCAACCC (structured_RNA) [C13.40], 1.3 ± 0.1 nM.
Broadly, the Kd is the constant that tells how readily two partners part at equilibrium. A low value points to a tighter complex. In data set [2], CCAUACGGGAGAGAAACU (ssRNA) [C13.18] showed a half-inhibitory concentration (IC50) of 100 ± 41 nM. This molecule also gave a Kd in data set [3] of 35 ± 5 nM.
In the case of GGCAGACCAUCCGGGAGAGAAACUUGCC (structured_RNA) [C13.28A51C], the binding result in data set [4] is reported as “no binding”.
Turning to GGCAGACCAUACGGGAGAGAAACUUGCC (ssRNA) [C13.28], the concentration for half-maximal inhibition (IC50) worked out at 0.44 ± 0.19 nM in data set [2]; 210 ± 10 nM in data set [9]; 590 ± 160 nM in data set [10]; 510 ± 170 nM in data set [11]; 3.3 ± 0.3 nM in data set [12]; 1.5 ± 0.1 nM in data set [1]. Also, the binding result in data set [5] and in data set [6] was “binds” throughout. Moreover, the dissociation constant (Kd) in data set [7] is 3.8 ± 1.2 nM; in [8], 1.2 ± 0.6 nM.

Source of the values: publication PMC3418449.
